Test results taken from the RNAGym collection of RNA variant scans (doi:10.1073/pnas.2313332121).

B1: TPR t1 (parent)
chain: GACCAAUCUGCCCUCAGAGCUCGAGAACAUCUUCGGAUGCAGAGGAGGCAGGCUUCGGUGGCGCGAUAGCGCCAACGUCCUCAACCUCCAAUGCAUCCCACCACAUGAUGAUGCCUGAAGAGCCUUGGUUUUUUG

Variants of: B1
Assay: polymerase ribozyme fitness, log enrichment relative to wild type (log ratio); higher = more active; in vitro selection for triplet polymerase activity
Method in brief: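 Frozen incubation at −7 °C formed the core of a single, triplicate in vitro selection round applied to PCR-built, transcribed mutant libraries of each subunit of a heterodimeric triplet polymerase ribozyme. Extended constructs were gel-excised, captured with streptavidin beads and amplified by RT-PCR, and input and output libraries were Illumina-sequenced with a filter of ≥10 input reads and ≥1 read per output. Fitness is the logarithm of genotype enrichment relative to wild-type enrichment, with inverse-variance-weighted replicate averaging, and the logarithm is base 2.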

In order of falling “polymerase ribozyme fitness (log ratio)” value:
1. A6C C8A A121C  1.45
2. A5U C123A  1.2
3. A5U U87G U130C  0.627
4. A5G G69U  0.484
5. A6C G120U  0.259
6. A6C G47A C124G  0.159
7. A6C G120A  0.157
8. A5U C40U C88A C101A A121U  0.119
9. A5U U14A C53U U112A  0.0341
10. A6C U7C  -0.0861
11. A5U  -0.135
12. A5U A6C C11U  -0.244
13. A6C U9A C11G A74G  -0.26
14. A5U C62U  -0.31
15. A6C G57C C70U  -0.399
16. A5U C72G U106C  -0.417
17. A5U A6C C49G U54A  -0.438
18. A6C U59G  -0.454
19. A6C C12G G57U  -0.469
20. A5U C11G  -0.477
21. A6C A95G C102U C124G  -0.561
22. A5U C72U U81C  -0.617
23. A6C C72G  -0.682
24. A5U A18C C124U  -0.683
25. A5U C8U C11U G61A G113A C124G  -0.703
26. A5U C72U  -0.719
27. A6C U78C  -0.721
28. A5G U81A  -0.807
29. A5U U125A U133G  -0.817
30. A5U C12U G71U  -0.82
31. A6C G61A  -0.848
32. A6C A37C  -0.884
33. A6C G71C C82A U112A A118U  -0.912
34. A5U C49G C53A G71U  -0.914
35. A5U U9G G48A U78A  -0.963
36. A5U G113A  -1.04
37. A6C G58C G60U A95C  -1.05
38. A5U C49U C70U  -1.06
39. A5U G60A U78A C97U  -1.08
40. A6C C12A G52U G61A  -1.1
41. A5U C8U A46G G60U A66U  -1.11
42. A6G A37U C56G  -1.11
43. A5U G42U A46G C72U U78G  -1.17
44. A5U A41U C64U G120C  -1.19
45. A5G C114A  -1.2
46. A5U A95C  -1.24
47. A6C G61A C115U  -1.31
48. A6C U9G G47C G63A A83U G120U  -1.35
49. A6G A24G C73A  -1.35
50. A6C U38A C115A  -1.35
51. A5G G69C  -1.4
52. A6C C8G G44C C64U U78C  -1.41
53. A5G G63A  -1.41
54. A6C C12U U38G C80U  -1.42
55. A6C C101A U132A  -1.42
56. A5U C11U  -1.46
57. A6C G48C  -1.5
58. A5G G10U G42U  -1.51
59. A6C G47U  -1.55
60. A5U U21G U55C G61U C79U C114A U126A  -1.56
61. A5G G71U A111C G127A  -1.59
62. A5U C53A C104U G113C  -1.6
63. A5U G42A  -1.63
64. A5U G60U U116C  -1.69
65. A5G G48C  -1.69
66. A5U A84U C97U  -1.7
67. A5U G61C  -1.74
68. A5G U14A  -1.75
69. A6C G69U C76G C85G G120U  -1.75
70. A6C A105C U130C  -1.78
71. A5U C28U C72A U78C  -1.78
72. A5G G44A G71U A83C C86U  -1.87
73. A6C C11U G63C  -1.94
74. A5G G48U G61A U81A C82A G127C  -1.97
75. A5U C8G C88U C97U G113C  -1.99
76. A5U C104A  -2
77. A5U C40U G42C  -2.03
78. A5G G10A C72U A91U  -2.06
79. A6C C115G  -2.07
80. A5G G69A  -2.1
81. A5U G113C  -2.11
82. A5G U32C C70U G93A  -2.13
83. A6C C82A C89A  -2.13
84. A6C C70G C82A  -2.15
85. A6C G44C G58A U96A  -2.15
86. A5U A46U U59C A90U C123A  -2.16
87. A5U A6C C8G G47A G113C  -2.19
88. A5U C12U C49U C94U  -2.22
89. A5U G48C  -2.24
90. A5U G36C G48U C85U  -2.32
91. A5U A6G G45C G69U A95U  -2.34
92. A5G G45A C49A G69U G93A U130G U131A  -2.39
93. A6C C76U C101G G122A C124U U129A  -2.42
94. A6C C70A C73U  -2.44
95. A6C C11A C72G C85U U112G  -2.46
96. A6C U7A C8G C13A G42C C72A C76G  -2.51
97. A6C U9A G52A A68G U106A  -2.55
98. A6C A105G U112C G127A  -2.69
99. A5U C72U C114U  -2.7
100. A5U C13G G44C  -2.74
101. A5U C20A G69U C98G C123G  -2.75
102. A6G A41C C76U C115U U130A U133A  -2.77
103. A5U C13G C89U U92A G120A  -2.77
104. A5G U78C C80A  -2.8
105. A6C G57C C79A C85U  -2.83
106. A5G G45U A46C G61A U78G C115U  -2.84
107. A5U C8U G93A A105G  -2.84
108. A5U C53U G63A C79G G127C  -2.9
109. A5U C11A G63A G93U  -2.91
110. A5U C62G A100U G120U  -3.08
111. A6C U9C A46C G61A C62U C82U  -3.08
112. A6C G61A U92A  -3.09
113. A6C A68G  -3.13
114. A5G U38G G39C  -3.2
115. A6C C62G G113A  -3.34
116. A5U G57A G63U C89G U112C U126A  -3.35
117. A6C U7G A29G G48C A95C  -3.37
118. A5U C28U A37U C104U C123G  -3.39
119. A5G G17U A18G A100C A121G C124G  -3.51
120. A5G G42U C56G A91C C115G  -3.59
121. A5G G35A U78A C101U  -3.77
122. A5U C8G C80A A83U  -3.88
123. A5U U81G G93A U106A C123U  -3.99
124. A5U A27G G60U  -4.01
125. A5G U109G C123G U130C  -4.03
126. A5U G19A C72G U112G  -4.06
127. A5U G19A G52A G57A A95G  -4.08
128. A5U G10U C49G C62G  -4.17
129. A6C G19C A43U A50C U96G  -4.2
130. A5G G36U G63C A111C A119C  -4.21
131. A6C U14G C94U C101G  -4.26
132. A6C G35U U59C A83U C98G A121U  -4.28
133. A6C C13U A27U C62A C82A  -4.43
134. A6C G58C U92G C114A U130A  -4.44
135. A5U A6C A26G G44A U54C A84C C94U  -4.49
136. A6C C13A G48C C49G C85A U92C  -4.52
137. A5U U14G A41U G60C C115U  -4.57
138. A5U A18C G113A A118U U131A  -4.6
139. A5U C12G C49G U81A G127A  -4.64
140. A6C G107U  -4.64
141. A5U A46C C53U U96G C102U  -4.66
142. A6C A29U A91C  -4.88
143. A6C C13U A37C G69U C98G  -4.9
144. A5U C8G G19A A43U U54A C70G  -4.96
145. A6C A108G C115U  -5
146. A6G A29C G45U C102A C124U  -5.32
147. A5U C20A U33A A37G C49G G52A U78A A111U  -5.53
148. A5U C28U C62G  -5.59
149. A5U U14C A18U G45U G71U A121C  -5.73
150. A6C C15A U33G C124G  -5.85
151. A5U C53A C88A C98A U109A  -5.9
152. A6C A43G G63U G69A G117C  -5.96
153. A6C C12A A84G U92C U106G G113C  -5.99
154. A5U C15G A43G U54G C114U G122U  -6.04
155. A5U A43G G48A C62U A103U G110U  -6.17
156. A5U U54G C79A G110C  -6.31
157. A5U C22U A50U U54G  -6.42
158. A5U G17A G69A C79U G113U  -6.54
159. A5U C12G C89U A103C G117U  -6.59
160. A5U C64G C124U  -6.6
161. A6G A41C C56A G69C G93U G117C  -6.65
162. A5U A16C G57C G69A G93A  -6.66
163. A6C C28G U30A G51U G69A C70A C115A G128C  -6.73
164. A5G G10A C15A G23C U32G G61C A90C  -6.73
165. A5U A6U U9G C28A C34A G60A A121C  -6.95
166. A6C C13U U33A G45U G51C A68U A121U G122U  -6.98
167. A6C C72U C73U C98G C115A U116G  -7.45
